In series [1] the test system is non-transgenic BY-2 protoplasts. Briefly: GUS activity of Box II/CaMV 35S chimeric promoters in non-transgenic BY-2 protoplasts. In kind it is cell-based, tobacco. The note with it: for stimulation of gene expression versus the construct without Box II: Box II at 7 nucleotides from the TATA box plus multiples of 0.5 turns of DNA helix; for increase in expression level above the construct without Box II: versus p-48CaMV and p-90CaMV respectively, normalized against GFP. The text has this: Specifically, the Box II element was fused to the 5′ end of the chimeric promoters with a space of 7 nucleotides from the TATA box plus 1, 1.5, 3.0, 3.5, 5.0 and 5.5 “turns of DNA helix” (one turn=10.4 base pairs). The chimeric promoters were then inserted into a cassette with the uidA coding sequencing and Nos terminator.
Construction of Plasmids Comprising the Box II Element and Different Lengths of the CaMV 35S Promoter—To construct Box II and CaMV 35S chimeric promoters, the Box II element was introduced into CaMV 35S promoter sequences of different lengths through PCR reactions using Pfu DNA polymerase (Stratagen Systems, Kirkland, Wis.). Forward primers for the PCR reactions were designed to have a HindIII restriction site, followed by the Box II sequence, which was followed by part of the 5′ CaMV promoter at desired positions (see FIG. 12 and Table 2 for specific primer sequences). The GUS 3′ primer (SEQ ID NO:36) was used as reverse primer for all reactions.
The p35S:GUS plasmid was used as template in the foregoing reactions. In the p35S:GUS plasmid, a NcoI restriction site was located between the CaMV 35S promoter and the GUS coding sequence. Thus, a NcoI site was present in all PCR products. The PCR products were restricted with HindIII/NcoI and cloned into a pE:GUS vector to replace the E promoter through the same set of restriction sites. The constructed plasmids containing the chimeric promoters labeled 1 through 6 in Table 2 were named p-1.0hBoxII−48CaMV:GUS, p-1.5hBoxII−53CaMV:GUS, p-3.0hBoxII−69CaMV:GUS, p-3.5hBoxII−74CaMV, p-5.0hBoxII−90CaMV:GUS, and p-5.5hBoxII−95CaMV:GUS, respectively. The controls for this set of plasmids were generated using primer sets 1.5h-53CaMV-c (SEQ ID NO:43)/GUS3′; −3.5h-74CaMV-c (SEQ ID NO:44)/GUS3′ and −5.5h-95CaMV-c (SEQ ID NO:45)/GUS3′, which products were cloned into pE:GUS with HindIII/NcoI to replace the E promoter. The derived plasmids/constructs were named p-53CaMV:GUS, p-74CaMV:GUS and p-95CaMV:GUS, respectively.
The foregoing constructs were then transfected into non-transgenic BY-2 protoplasts, and the resulting GUS activity determined.

The subject of a further series is Box IIm1 element. Kind of series: Electrophoretic mobility shift assay. The note with it: 100 ng purified protein, 32P-labeled Box IIm1 DNA probe. The format is binding. Here is the method:
The purified mutant proteins were then analyzed by SDS-PAGE to confirm that each protein was its expected size (FIG. 16(B)). To confirm that each of the mutant proteins bind to the DNA target, i.e., the Box II element and/or its operational derivatives, gel mobility shift assays were carried out with the purified recombinant proteins (FIG. 16(C)). The electrophoretic mobility shift assays were carried out essentially as described in Yin and Beachy (1995). 100 ng of proteins purified from the transformed E. coli were incubated with ^32P-labeled Box IIm1 DNA probe followed by electrophoresis in a 5% acrylamide gel (Yin et al., 1997) (FIG. 16(C)).

In series [2] the test system is Nicotiana tabacum cv. Xanthi NN. Briefly: Phenotype of transgenic tobacco plants overexpressing RF2a or RF2a mutants. The format is in vivo. The note with it: CaMV 35S promoter driven, T1 generation, greenhouse. The text has this: (Yin et al., 1997; Petruccelli et al., 2001). […] Fifteen or more independent transgenic tobacco lines were developed with the constructs described below through Agrobacterium-mediated transformation.
Plasmids for Agrobacterium-mediated transformation—The fusion genes described above relating to the plant expression constructs comprising RF2a deletion mutants were released from pMON999-derived plasmids using NotI (blunted) and cloned into the binary vector pGA-E::GUS (Petruccelli et al., 2001) using the blunt HindIII site (downstream of a CaMV 35S promoter sequence). The final plasmids were named pGA-E::GUS/P-35S::ΔP, pGA-E::GUS/P-35S::ΔQ, pGA-E::GUS/P-35S::ΔPΔA and pGA-E::GUS/P-35S::ΔPΔQ. A plasmid encoding full-length RF2a, p35S::RF2a, was also constructed using the methods described herein.
Tobacco transformation—the plasmids described above were introduced into Agrobacterium tumefaciens strain LBA4404 and used for tobacco transformation. Leaf discs from Nicotiana tabacum cv. Xanthi NN were transformed with the various plasmids following the protocol of Horsch et al. (1988). At least 15 independent transgenic lines were produced with each gene construct. Transgenic plants were self-fertilized, and T1 seeds were collected. The T1 seeds were germinated on Murashige and Skoog medium (Murashige and Skoog, 1962) with kanamycin (100 mg/L) selection, and Kan^r seedlings were grown in a greenhouse for observation.
The phenotype caused by 35S::RF2a-ΔPΔA was similar to, but less severe than, the phenotype caused by 35S::RF2a-3Δ. […] (FIG. 19(C)).

For a further series, the system named is pBII-48Ca::GUS. Briefly: Transactivation of pBII-48Ca::GUS by RF2a and RF2a mutants in BY-2 protoplasts. In kind it is cell-based, tobacco. Particulars: co-transfected with pBII-48Ca::GUS, 24 hours after electroporation, normalized with GFP. Here is the method: The relative activity of RF2a and the RF2a mutants (described in Example 8) was then measured. First, a chimeric promoter was developed with a single copy of the Box II element fused to the 5′ end of a minimal CaMV 35S promoter comprising nucleotides −48 to +8 (SEQ ID NO:66). The chimeric promoter was ligated to the uidA coding sequence to create the reporter pBII-48Ca::GUS.
To analyze the function of the several domains of RF2a, effectors were created by inserting coding sequences of RF2a or the mutants of RF2a (described in Example 8) downstream of the enhanced CaMV 35S promoter in the pMON999 vector (a gift from Monsanto Company, St. Louis, Mo.). The resultant constructs, p35S::RF2a, p35S::RF2a-ΔP, p35S::RF2a-ΔQ, p35S::RF2a-ΔPΔA, p35S::RF2a-ΔPΔQ and p35S::RF2a-3Δ, were co-transfected into BY-2 protoplasts with pBII-48Ca::GUS (FIG. 17(A)). Plasmid pCat-GFP, in which the GFP gene was driven by CaMV 35S promoter, was co-introduced to serve as an internal control. The following describes, in greater detail, the construction of these vectors and the methods employed in transfecting the same into BY-2 protoplasts.
Plasmids for protoplast transfection—The coding sequences for mutants of RF2a were released from pET28a-derived plasmids and cloned into the plant expression vector pMON999 (a gift from Monsanto Company, St. Louis, Mo.) to place each gene downstream of an enhanced CaMV 35S promoter, followed by a nopaline synthase terminator sequence. The resulting effector constructs were named p35S::RF2a, p35S::RF2a-ΔP, p35S::RF2a-ΔQ, p35S::RF2a-ΔPΔA, p35S::RF2a-ΔPΔQ and p35S::RF2a-3Δ. The reporter gene construct, pBII-48Ca::GUS, was built using PCR to introduce the Box II element into a minimal CaMV 35S promoter comprising nucleotides −48 to +8 with primers BII-48Ca 5′ (SEQ ID NO:53) (which contained the Box II element) and GUS 3′ (SEQ ID NO:36) using a p35S:GUS plasmid as template. The PCR product was restricted with HindIII and NcoI, and the resulting fragment was inserted into p35S::GUS to replace the original 35S promoter.
Transfection of tobacco BY-2 protoplasts—The protoplasts were isolated from tobacco cell line BY-2 as described by Watanabe et al. (1987). Approximately one million protoplasts were transfected by electroporation with 20 μg of effector construct DNA, 15 μg of herring sperm DNA, 2.5 μg of reporter gene construct DNA, and 15 μg of pCat-GFP DNA. In samples with reporter gene alone, the total amount of DNA was adjusted by adding 20 μg of herring sperm carrier DNA. The electroporation parameters used were 300 V and 250 microfarads with the Bio-Rad electroporation system (Bio-Rad Laboratories, Hercules, Calif.). Protoplast samples were cultured in Murashige and Skoog medium with 0.4 M mannitol, pH 5.8, at 28° C. The protoplasts were collected 24 hours after electroporation.

From patent publication US7847064B2, “Methods and compositions for regulating gene expression in plant cells” (Donald Danforth Plant Science Center, priority 2004, dated 2010) come the findings set out here.

For the molecule “p-1.5hBox II−53CaMV: Box II fused to CaMV 35S promoter, 7 nucleotides from TATA box plus 1.5 turns (DNA TGATCAAAGCTTCCAGTGTGCCCCTGGATCCTTCGCAAGACCCT; listed as DNA, chemistry not given here)”, the “stimulation of gene expression versus the construct without Box II” value in series [1] is “much less or no stimulation of gene expression”.

On to “p1.0hBoxII−48CaMV: Box II fused to CaMV 35S promoter, 7 nucleotides from TATA box plus 1 turn of DNA helix (DNA TGATCAAAGCTTCCAGTGTGCCCCTGGTCGCAAGACCCTTCCTC; listed as DNA, chemistry not given here)”, for which, in series [1], the “increase in expression level above the construct without Box II” value was determined as 6.9 fold. On to “p-3.5hBox II−74CaMV: Box II fused to CaMV 35S promoter, 7 nucleotides from TATA box plus 3.5 turns (DNA TGATCAAAGCTTCCAGTGTGCCCCTGGGGGATGACGCACAATCC; listed as DNA, chemistry not given here)”, for which the “stimulation of gene expression versus the construct without Box II” value in series [1] is given as “much less or no stimulation of gene expression”. For “p5.0hBoxII−90CaMV: Box II fused to CaMV 35S promoter, 7 nucleotides from TATA box plus 5.0 turns (DNA TGATCAAAGCTTCCAGTGTGCCCCTGGATCTCCACTGACGTAAG; listed as DNA, chemistry not given here)”, the “increase in expression level above the construct without Box II” value in series [1] is reported as 4.7 fold. “p-5.5hBox II−95CaMV: Box II fused to CaMV 35S promoter, 7 nucleotides from TATA box plus 5.5 turns (DNA TGATCAAAGCTTCCAGTGTGCCCCTGGGTGATATCTCCACTGAC; listed as DNA, chemistry not given here)”: in series [1], the “stimulation of gene expression versus the construct without Box II” value was “much less or no stimulation of gene expression”.

B1: RF2a-ΔP: RF2a mutant, proline-rich domain removed, SEQ ID NO:68 (protein)
chain: MGHRRAHSEILSLPEDLDLCAAGGGDGPSLSDENDEELFSMFLDVEKLNSTCGASSEAEAESSSAAAHGARPKHQHSLSMDESMSIAEELVGASPGTEGMSSAEAKKAVSAVKLAELALVDPKRAKRIWANRQSAARSKERKMRYIAELERKVQTLQTEATTLSAQLALLQRDTSGLTTENSELKLRLQTMEQQVHLQDALNDTLKSEVQRLKVATGQMANGGGMMMNFGGMPHQFGGNQQMFQNNQAMQSMLAAHQLQQLQLHPQAQQQQVLHPQHQQQQPLHPLQAQQLQQAARDLKMKSPMGGQSQWGDGKSGSSGN
modifications: This sequence was artificially derived and/or created by the inventors.
For B1, the “binding in gel mobility shift assay” value in the series on Box IIm1 element was “bind to the Box IIm1 element”. In addition, the “phenotype of transgenic tobacco plants” value in series [2] is “did not exhibit abnormal phenotypes”. In addition, the “activation function (relative GUS activity)” value in the series on pBII-48Ca::GUS is given as “greater than that of full-length RF2a”.

B2: RF2a-ΔQ: RF2a mutant, glutamine-rich domain removed, SEQ ID NO:69 (protein)
chain: MNREKSPIPGDGGDGLPPQATRRAGPPAAAAAAEYDISRMPDFPTRNPGHRRAHSEILSLPEDLDLCAAGGGDGPSLSDENDEELFSMFLDVEKLNSTCGASSEAEAESSSAAAHGARPKHQHSLSMDESMSIKAEELVGASPGTEGMSSAEAKKAVSAVKLAELALVDPKRAKRIWANRQSAARSKERKMRYIAELERKVQTLQTEATTLSAQLALLQRDTSGLTTENSELKLRLQTMEQQVHLQDALNDTLKSEVQRLKVATGQMANGGGMMMNFGGMPHQ
modifications: This sequence was artificially derived and/or created by the inventors.
B2: the “binding in gel mobility shift assay” value in the series on Box IIm1 element is “bind to the Box IIm1 element”. Further, the “phenotype of transgenic tobacco plants” value in series [2] is on record as “did not exhibit abnormal phenotypes”. The “activation function (relative GUS activity)” value in the series with pBII-48Ca::GUS was “greater than that of full-length RF2a”.
